The text below walks through data of patent US20190389955A1.

This test addresses human FLT3/FLK2 receptor protein (human) (UniProt P36888). Briefly: flow cytometry on SP2/0 cells expressing human FLT3/FLK2; same table: unstained SP2/0 clone 3 6063, secondary Ab 9522.

human FLT3/FLK2 receptor protein (human), sequence (P36888 27-993): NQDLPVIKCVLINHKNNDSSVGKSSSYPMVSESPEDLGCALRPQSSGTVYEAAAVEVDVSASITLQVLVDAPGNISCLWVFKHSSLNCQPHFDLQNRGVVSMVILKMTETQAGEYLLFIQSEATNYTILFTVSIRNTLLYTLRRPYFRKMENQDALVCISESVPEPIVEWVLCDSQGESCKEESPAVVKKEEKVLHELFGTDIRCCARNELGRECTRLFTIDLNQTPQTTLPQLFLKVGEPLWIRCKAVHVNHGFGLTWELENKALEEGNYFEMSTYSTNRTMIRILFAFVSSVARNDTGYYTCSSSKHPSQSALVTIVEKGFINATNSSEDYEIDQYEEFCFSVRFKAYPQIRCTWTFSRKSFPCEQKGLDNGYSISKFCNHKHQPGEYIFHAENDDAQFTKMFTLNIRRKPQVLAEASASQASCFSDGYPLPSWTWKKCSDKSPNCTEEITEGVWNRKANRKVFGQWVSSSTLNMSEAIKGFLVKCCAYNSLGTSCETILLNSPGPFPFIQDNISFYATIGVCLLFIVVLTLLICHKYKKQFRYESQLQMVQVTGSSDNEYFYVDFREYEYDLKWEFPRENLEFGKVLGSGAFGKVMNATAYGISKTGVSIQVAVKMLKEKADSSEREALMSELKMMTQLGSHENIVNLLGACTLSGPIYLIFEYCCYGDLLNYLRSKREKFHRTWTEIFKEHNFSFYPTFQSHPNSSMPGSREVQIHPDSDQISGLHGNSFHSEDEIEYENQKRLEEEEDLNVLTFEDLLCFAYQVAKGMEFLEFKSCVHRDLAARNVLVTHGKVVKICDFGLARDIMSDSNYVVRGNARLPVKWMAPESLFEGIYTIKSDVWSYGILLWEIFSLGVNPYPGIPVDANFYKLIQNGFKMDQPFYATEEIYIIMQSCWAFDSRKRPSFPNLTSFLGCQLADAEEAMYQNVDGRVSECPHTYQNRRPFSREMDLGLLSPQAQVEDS

Substance ISOTYPE CTR (antibody) returned an MFI of 11500.
